Test [1] has as its system Aβ release. Particulars: exogenous RAP, cells overexpressing APP751; cited from earlier work.
Test [2] concerns APP processing. Briefly: Overexpression of Fe65 in APP751-transfected CHO cells, APPs and Aβ. It is filed as cell-based. As to conditions: preliminary studies. From the text: In the second set of experiments, Inventors determine whether overexpression of Fe65 impairs APP and LRP processing by acting as a dominant or competitive negative mutant. Inventors briefly mentioned the preliminary results above with APPs and Aβ when Fe65 was overexpressed in APP75 1-transfected CHO cells. These studies are repeated for reliable quantitation and other aspects of APP trafficking are examined, as performed in the earlier aims. Inventors also assess the binding and uptake of LRP ligands. To ascertain that these outcomes are due to inhibition by Fe65, Inventors overexpress Fe65 mutants that cannot bind either APP or LRP, i.e., ΔPID2 and ΔPID 1, respectively. If these mutant constructs mimic the results from full length Fe65 even though it cannot bind it's known substrate, then it supports the idea that Fe65 or Fe65L in excess behaves as an inhibitor. […] The premise is that an overabundance of Fe65 result in the failure to link up limiting amounts of LRP with APP. Thus, co-expression of Fe65 with LRP should greatly diminish the effects of Fe65 expressed by itself In the third set of experiments, Inventors test the concept that other APP and LRP interacting proteins with only single binding sites, such as mDab, X11/Mint-1 and JIP-1, compete for binding with Fe65 or Fe65L, and by displacing Fe65, produce a partial loss of function with respect to APP processing. […]

Test [3] has as its target T1, Fe65 (UniProt O00213 1-710, limits assumed).
T1 construct: also called Fe65 adaptor protein; in vitro translated Fe65
T1 sequence (looked up): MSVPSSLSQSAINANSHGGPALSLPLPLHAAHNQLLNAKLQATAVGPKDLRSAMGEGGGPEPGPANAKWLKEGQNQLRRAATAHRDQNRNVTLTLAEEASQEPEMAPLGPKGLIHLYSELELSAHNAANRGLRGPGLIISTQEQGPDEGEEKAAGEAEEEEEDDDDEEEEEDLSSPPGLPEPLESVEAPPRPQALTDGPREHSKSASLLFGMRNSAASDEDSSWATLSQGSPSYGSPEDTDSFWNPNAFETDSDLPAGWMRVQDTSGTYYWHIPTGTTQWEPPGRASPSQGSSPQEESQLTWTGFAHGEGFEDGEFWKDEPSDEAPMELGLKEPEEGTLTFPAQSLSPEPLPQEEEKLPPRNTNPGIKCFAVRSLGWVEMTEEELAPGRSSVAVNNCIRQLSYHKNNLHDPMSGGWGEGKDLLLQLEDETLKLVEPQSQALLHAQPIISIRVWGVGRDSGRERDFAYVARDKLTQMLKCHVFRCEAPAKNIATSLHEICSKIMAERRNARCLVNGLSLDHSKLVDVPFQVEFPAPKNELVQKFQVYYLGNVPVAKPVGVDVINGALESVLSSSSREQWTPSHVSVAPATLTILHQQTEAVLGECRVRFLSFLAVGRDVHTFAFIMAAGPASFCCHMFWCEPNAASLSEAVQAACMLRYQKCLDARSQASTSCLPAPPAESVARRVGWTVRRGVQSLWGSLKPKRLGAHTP
Description: GST pull down of in vitro translated Fe65.

B1: RAP: 39 kDa receptor associated protein, an LRP chaperone molecule that blocks binding of all known LRP ligands (protein, UniProt P30533 35-357, looked up)
Alpha-2-macroglobulin …: YSREKNQPKPSPKRESGEEFRMEKLNQLWEKAQRLHLPPVRLAELHADLKIQERDELAWKKLKLDGLDEDGEKEARLIRNLNVILAKYGLDGKKDARQVTSNSLSGTQEDGLDDPRLEKLWHKAKTSGKFSGEELDKLWREFLHHKEKVHEYNVLLETLSRTEEIHENVISPSDLSDIKGSVLHSRHTELKEKLRSINQGLDRLRRVSHQGYSTEAEFEEPRVIDLWDLAQSANLTDKELEAFREELKHFEAKIEKHNHYQKQLEIAHEKLRHAESVGDGERVSRSREKHALLEGRTKELGYTVKKHLQDLSGRISRARHNEL
As to B1, in test [1], the Aβ release entry was “dramatically reduced”.

B2: Fe65: cytosolic adaptor protein with separate binding domains (PID1, PID2) for LRP and APP, overexpressed in cells (protein)
chain: MSVPSSLSQSAINANSHGGPALSLPLPLHAAHNQLLNAKLQATAVGPKDLRSAMGEGGGPEPGPANAKWLKEGQNQLRRAATAHRDQNRNVTLTLAEEASQEPEMAPLGPKGLIHLYSELELSAHNAANRGLRGPGLIISTQEQGPDEGEEKAAGEAEEEEEDDDDEEEEEDLSSPPGLPEPLESVEAPPRPQALTDGPREHSKSASLLFGMRNSAASDEDSSWATLSQGSPSYGSPEDTDSFWNPNAFETDSDLPAGWMRVQDTSGTYYWHIPTGTTQWEPPGRASPSQGSSPQEESQLTWTGFAHGEGFEDGEFWKDEPSDEAPMELGLKEPEEGTLTFPAQSLSPEPLPQEEEKLPPRNTNPGIKCFAVRSLGWVEMTEEELAPGRSSVAVNNCIRQLSYHKNNLHDPMSGGWGEGKDLLLQLEDETLKLVEPQSQALLHAQPIISIRVWGVGRDSGRERDFAYVARDKLTQMLKCHVFRCEAPAKNIATSLHEICSKIMAERRNARCLVNGLSLDHSKLVDVPFQVEFPAPKNELVQKFQVYYLGNVPVAKPVGVDVINGALESVLSSSSREQWTPSHVSVAPATLTILHQQTEAVLGECRVRFLSFLAVGRDVHTFAFIMAAGPASFCCHMFWCEPNAASLSEAVQAACMLRYQKCLDARSQASTSCLPAPPAESVARRVGWTVRRGVQSLWGSLKPKRLGAHTP
In the case of B2, in test [2], the APPs secretion result is recorded as “augmented” and the Aβ release entry was “reduction”.

B3: GST fusion protein of the LRP cytoplasmic tail with a single alanine substitution at L of the YATL motif (other, not shown: a dimerising Fc or GST; small tags and cut ends)
chain: KRRVQGAKGFQHQRMTNGAMNVEIGNPTYKMYEGGEPDDVGGLLDADFALDPDKPTNFTNPVYATAYMGGHGSRHSLASTDEKRELLGRGPEDEIGDPLA
modifications: N-terminal GST fusion, not carried in the letters
notes: Position 4510 is derived from the motif's printed limits (4504 to 4510)
As for B3, the “reduction of binding against wild type LRP” value (“reduction of binding” below) in test [3] is greater than 50%.

B4: GST fusion protein of the LRP cytoplasmic tail with a single alanine substitution at N of the second NPXY motif (other, not shown: a dimerising Fc or GST; small tags and cut ends)
chain: KRRVQGAKGFQHQRMTNGAMNVEIGNPTYKMYEGGEPDDVGGLLDADFALDPDKPTNFTAPVYATLYMGGHGSRHSLASTDEKRELLGRGPEDEIGDPLA
modifications: N-terminal GST fusion, not carried in the letters
notes: Position 4504 is derived from the motif's printed limits (4504 to 4510)
In the case of B4, the “reduction of binding” value in test [3] was greater than 50%.

B5: GST fusion protein of the LRP cytoplasmic tail with a single alanine substitution at Y of the second NPXY motif (other, not shown: a dimerising Fc or GST; small tags and cut ends)
chain: KRRVQGAKGFQHQRMTNGAMNVEIGNPTYKMYEGGEPDDVGGLLDADFALDPDKPTNFTNPVAATLYMGGHGSRHSLASTDEKRELLGRGPEDEIGDPLA
modifications: N-terminal GST fusion, not carried in the letters
Consider B5, for which the “reduction of binding” value in test [3] was greater than 50%.

The values above are taken from patent US20040038338A1, “Influence of LRP cytoplasmic domain on Abeta production” (priority 2001, published 2004).
